As usually defined, the Kd is a measure of binding affinity in units of concentration. Read a low Kd as tighter binding. What is called koff is a measure of how fast the partners let go of each other. In general, kon refers to a measure of how fast the partners come together.

The values that follow come from patent US20190270811A1 (UCB, published 2019).

Assay [1] has as its target T1, Human FcRn expressed on MDCK II clone 15 cells (human FcRn and human B2M) (human, UniProt P55899 24-365). Put plainly: cell-based or functional assay.
For assay [2], the target named is T2, Human FcRn extracellular domain (non-covalent complex of human FcRn alpha chain extracellular domain and … (human, UniProt P55899 24-297; P61769 21-119).
T2 construct: also called hFcRn; hFcRn alpha chain ECD region with human beta 2 microglobulin
Put plainly: SPR Biacore T200, IgG4P captured by anti-human Fc, hFcRn ECD/b2M as analyte, pH 7.4, mean of 3. Background: SPR reads the build-up and loss of mass on a sensor chip optically.
Procedure: (§1) Biomolecular interaction analysis using surface plasmon resonance technology (SPR) was performed on a Biacore T200 system (GE Healthcare) and binding to human FcRn extracellular domain determined.
(§2) The surface was regenerated by 2×60 s 50 mM HCl at 10 μl/min for the running buffer at pH6 or by 60 s 40 mM HCl and 30 s 10 mM NaOH for the running buffer at pH7.4. The data was analysed using T200 evaluation software (version 1.0) using the 1:1 binding model with local Rmax.

Assay [3] deals with T2, Human FcRn extracellular domain …. As to the kind of experiment: SPR Biacore T200, IgG4P captured by anti-human Fc, hFcRn ECD/b2M as analyte, pH 7.4, run 2.
Procedure: as §1, §2
Assay [4] has the same target. As to the kind of experiment: SPR Biacore T200, IgG4P captured by anti-human Fc, hFcRn ECD/b2M as analyte, pH 6.0, run 1.
Procedure: as §1, §2
The target is the same in assay [5]. As to the kind of experiment: SPR Biacore T200, IgG4P captured by anti-human Fc, hFcRn ECD/b2M as analyte, pH 6.0, mean of 3.
Procedure: as §1, §2
The target in assay [6] is T1, Human FcRn expressed on MDCK II clone …. Put plainly: quantitative flow cytometry, AlexaFluor 488-labelled antibody on MDCK II clone 15 cells, pH 7.4, mean of n=3. A general note: In flow cytometry, cells or beads pass a laser one at a time.
Procedure: (§3) Specific binding of antibody to FcRn across a range of antibody concentrations was used to determine KD.
(§4) The final antibody concentrations ranged from 400 nM to 0.003 nM. The cells were washed in ice cold Facs buffer then analysed by flow cytometry using a Guava flow cytometer (Millipore, UK). Titration data sets were also produced for isotype control antibodies for each antibody format to determine non-specific binding. The number of moles of bound antibody was calculated using interpolated values from a standard curve generated from beads comprised of differing amounts of fluorescent dye. Geometric mean fluorescence values were determined in the flow cytometric analyses of cells and beads. Non-specific binding was subtracted from the anti-FcRn antibody values and the specific binding curve generated was analysed by non-linear regression using a one-site binding equation (Graphpad Prism®) to determine the KD. Data is representative of 3 experiments.
In assay [7] the target is T3, Cynomolgus macaque FcRn expressed on MDCK II clone 40 cells (cynomolgus macaque FcRn and B2M) (cynomolgus macaque, UniProt Q8SPV9 24-365; Q8SPW0 21-119).
T3 construct: whole, on cells; also called Cyno FcRn
T3 sequence (Q8SPV9 24-365, chain 1 of 2): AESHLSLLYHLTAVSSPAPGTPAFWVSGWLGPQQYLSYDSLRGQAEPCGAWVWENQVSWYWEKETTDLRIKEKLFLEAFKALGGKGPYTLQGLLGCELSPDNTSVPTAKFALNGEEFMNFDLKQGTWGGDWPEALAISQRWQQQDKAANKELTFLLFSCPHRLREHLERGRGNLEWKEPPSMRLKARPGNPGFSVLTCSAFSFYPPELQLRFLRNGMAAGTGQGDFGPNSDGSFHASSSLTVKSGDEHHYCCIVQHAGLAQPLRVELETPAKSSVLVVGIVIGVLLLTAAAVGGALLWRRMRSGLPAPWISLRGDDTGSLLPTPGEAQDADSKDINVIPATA
T3 sequence (Q8SPW0 21-119, chain 2 of 2): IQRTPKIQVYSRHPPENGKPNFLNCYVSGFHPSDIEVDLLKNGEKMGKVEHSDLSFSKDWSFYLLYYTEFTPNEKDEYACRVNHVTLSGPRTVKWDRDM
Put plainly: quantitative flow cytometry on MDCK II clone 40 cells, pH 7.4, mean of n=3.

In assay [8] the target is T1, Human FcRn expressed on MDCK II clone …. Put plainly: quantitative flow cytometry, AlexaFluor 488-labelled antibody on MDCK II clone 15 cells, pH 6.0, mean of n=3.
Procedure: as §3, §4
The target of assay [9] is T2, Human FcRn extracellular domain …. As to the kind of experiment: SPR Biacore T200, IgG4P captured by anti-human Fc, hFcRn ECD/b2M as analyte, pH 6.0, run 3.
Procedure: as §1, §2
The target is the same in assay [10]. As to the kind of experiment: SPR Biacore T200, IgG4P captured by anti-human Fc, hFcRn ECD/b2M as analyte, pH 7.4, run 1.
Procedure: as §1, §2
In assay [11] the target is T3, Cynomolgus macaque FcRn expressed on …. As to the kind of experiment: quantitative flow cytometry on MDCK II clone 40 cells, pH 6.0, mean of n=3.
Source text: as §3
The target of assay [12] is T2, Human FcRn extracellular domain …. Put plainly: SPR Biacore T200, IgG4P captured by anti-human Fc, hFcRn ECD/b2M as analyte, pH 7.4, run 3.
Procedure: as §1, §2
Assay [13] shares this target. As to the kind of experiment: SPR Biacore T200, IgG4P captured by anti-human Fc, hFcRn ECD/b2M as analyte, pH 6.0, run 2.
Procedure: as §1, §2

B1: CA170_1638.g49 FabFv (bispecific antibody)
heavy: EVQLVESGGGLVQPGGSLRLSCAASGFSLSTYGVGVGWVRQAPGKGLEWLANIWWDDDKRYNPSLENRFTISRDNAKNSAYLQMNSLRAEDTAVYYCARTPAYYGSHPPFDYWGQGTMVTVSSASTKGPSVFPLAPSSKSTSGGTAALGCLVKDYFPEPVTVSWNSGALTSGVHTFPAVLQSSGLYSLSSVVTVPSSSLGTQTYICNVNHKPSNTKVDKKVEPKSCSGGGGSGGGGTGGGGSEVQLLESGGGLVQPGGSLRLSCAVSGIDLSNYAINWVRQAPGKCLEWIGIIWASGTTFYATWAKGRFTISRDNSKNTVYLQMNSLRAEDTAVYYCARTVPGYSTAPYFDLWGQGTLVTVSS
light: DIQMTQSPSSLSASVGDRVTITCRTSEDIYTNLAWYQQKPGKVPKLLIYVAKTLQEGVPSRFSGSGSGTHYTLTISSLQPEDVATYYCLQGFKFPWTFGGGTKVEIKRTVAAPSVFIFPPSDEQLKSGTASVVCLLNNFYPREAKVQWKVDNALQSGNSQESVTEQDSKDSTYSLSSTLTLSKADYEKHKVYACEVTHQGLSSPVTKSFNRGECGGGGSGGGGSGGGGSDIQMTQSPSSVSASVGDRVTITCQSSPSVWSNFLSWYQQKPGKAPKLLIYEASKLTSGVPSRFSGSGSGTDFTLTISSLQPEDFATYYCGGGYSSISDTTFGCGTKVEIKRT
For the molecule B1, the “apical to basolateral transcytosis of human IgG in MDCK II clone 15 cells, EC50” value in assay [1] turned out to be 420 pM.

B2: CA170_1638.g49 IgG4P (antibody)
heavy: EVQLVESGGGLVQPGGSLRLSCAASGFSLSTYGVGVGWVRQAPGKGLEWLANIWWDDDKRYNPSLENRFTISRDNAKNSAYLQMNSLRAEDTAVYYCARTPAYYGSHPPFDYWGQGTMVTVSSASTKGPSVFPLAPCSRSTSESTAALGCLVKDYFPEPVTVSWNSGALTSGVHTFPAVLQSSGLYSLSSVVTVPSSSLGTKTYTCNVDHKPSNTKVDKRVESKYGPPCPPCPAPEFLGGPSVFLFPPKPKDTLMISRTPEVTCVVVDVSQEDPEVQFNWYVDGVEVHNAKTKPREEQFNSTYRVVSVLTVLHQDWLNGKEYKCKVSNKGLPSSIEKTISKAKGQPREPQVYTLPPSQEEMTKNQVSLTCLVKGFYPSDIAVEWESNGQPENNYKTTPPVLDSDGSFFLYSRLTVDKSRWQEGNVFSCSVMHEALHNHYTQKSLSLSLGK
light: DIQMTQSPSSLSASVGDRVTITCRTSEDIYTNLAWYQQKPGKVPKLLIYVAKTLQEGVPSRFSGSGSGTHYTLTISSLQPEDVATYYCLQGFKFPWTFGGGTKVEIKRTVAAPSVFIFPPSDEQLKSGTASVVCLLNNFYPREAKVQWKVDNALQSGNSQESVTEQDSKDSTYSLSSTLTLSKADYEKHKVYACEVTHQGLSSPVTKSFNRGEC
notes: In the flow cytometry assays the antibody was labelled with AlexaFluor 488; also called 1638.49 g IgG4
As to B2, the Kd was determined as 29.4 pM in assay [2]; 33.2 pM in assay [3]; 129 pM in [4]; 127 pM in assay [5]; 200 pM in assay [6]; 300 pM in assay [7]. Also, the Kd in assay [8] is 220 pM; in assay [9], 127 pM; in assay [10], 25.7 pM; in [11] it was 430 pM; in [12] it was 29.3 pM; in [13], 126 pM. Besides, the dissociation rate constant (koff) in assay [2] came to 2.84e-05 s⁻¹; in assay [3] it was 3.19e-05 s⁻¹; in assay [4], 0.000143 s⁻¹; in [5], 0.000141 s⁻¹; in [9], 0.00014 s⁻¹; in [10], 2.51e-05 s⁻¹. The koff in [12] turned out to be 2.82e-05 s⁻¹; in [13], 0.000139 s⁻¹. Further, the kon in [2] was 967000 M⁻¹ s⁻¹; in [3], 962000 M⁻¹ s⁻¹; in assay [4] it was 1.1e+06 M⁻¹ s⁻¹; in [5] it was 1.1e+06 M⁻¹ s⁻¹; in assay [9], 1.11e+06 M⁻¹ s⁻¹; in assay [10], 975000 M⁻¹ s⁻¹. The kon in assay [12] stood at 962000 M⁻¹ s⁻¹; in assay [13] it was 1.1e+06 M⁻¹ s⁻¹. For the same molecule, the “IgG recycling in MDCK II clone 15 cells, EC50” value in [1] is 310 pM. In [1], the “apical to basolateral transcytosis of human IgG in MDCK II clone 15 cells, EC50” value stood at 2400 pM.
